Source: patent US20260022170A1 (published 2026)

Legend:
[1] = biological target: human Siglec-9 protein (recombinant; construct not stated) (UniProt Q9Y336 18-344); assay: BLI
[2] = biological target: recombinant human Siglec-9 protein (UniProt Q9Y336 18-348); assay: ELISA
[3] = biological target: recombinant Siglec-9 (SinoBiological, 30109-H03H) (UniProt Q9Y336 18-348); assay: ELISA
recombinant Siglec-9 (SinoBiological, 30109-H03H), sequence (Q9Y336 18-348): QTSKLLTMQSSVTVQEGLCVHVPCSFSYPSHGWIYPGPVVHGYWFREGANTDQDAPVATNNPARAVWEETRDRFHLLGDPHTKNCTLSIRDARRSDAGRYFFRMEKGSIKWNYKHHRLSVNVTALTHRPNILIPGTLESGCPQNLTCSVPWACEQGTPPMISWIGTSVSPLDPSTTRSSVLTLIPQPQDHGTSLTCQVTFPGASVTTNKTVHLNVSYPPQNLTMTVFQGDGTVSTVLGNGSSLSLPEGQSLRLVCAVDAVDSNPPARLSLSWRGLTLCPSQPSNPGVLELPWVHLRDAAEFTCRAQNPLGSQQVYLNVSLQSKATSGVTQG

human Siglec-9 protein (recombinant; construct not stated), sequence (Q9Y336 18-344): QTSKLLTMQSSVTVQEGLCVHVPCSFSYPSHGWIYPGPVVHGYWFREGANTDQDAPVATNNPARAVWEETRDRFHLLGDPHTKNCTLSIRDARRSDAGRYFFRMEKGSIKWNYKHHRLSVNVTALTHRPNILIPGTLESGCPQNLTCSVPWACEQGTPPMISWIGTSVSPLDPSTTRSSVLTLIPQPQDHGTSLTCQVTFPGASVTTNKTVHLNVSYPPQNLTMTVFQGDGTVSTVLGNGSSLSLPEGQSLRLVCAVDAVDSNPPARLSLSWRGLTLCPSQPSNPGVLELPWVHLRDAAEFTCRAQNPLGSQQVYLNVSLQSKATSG
recombinant human Siglec-9 protein, sequence (Q9Y336 18-348): as the sequence (Q9Y336 18-348) above

| Kd [1] | Binder | further results |
| --- | --- | --- |
| 38 nM | anti-Siglec-9 monoclonal antibody clone ED2D5 (antibody, V domains shown) VH: EVQLVESGGGLVKPGGSLKLSCAASGFTFSDYYMYWVRQTPEKRLEWVATISDGGSDTYYPDNMKGRFTISRDNAKNNLYLQMSSLKSEDTAMYYCTRDPDYDDGRFAYWGQGTLVTVSA VL: DIVMTQSHKFMSTSVGDRVSITCKASQDVGTVVAWYQQKSGQSPKLLIYWSSTRHTGVPDRFTGSGSGTDFTLTISNVQSEDLADYFCQQYIDYPLSFGAGTKLELK | – |
| – | Benchmark-3 (antibody, V domains shown) VH: QSLEESGGRLVKPDETLTITCTVSGIDLSSYDMTWVRQAPGKGLEWIGIIYTGGLTYYASWAKGRFTISKTSTTVDLKITSPTTEDTATYFCAREVGDNNNFWGPGTLVTVSS VL: DVVMTQTPASVSEPVGGTVTIKCQASESVDSGLAWYHQKPGQPPKLLIYDDTDLASGVPSRFKGSRSGTAHTLTISDLECADAATYYCQYTDYGRTYVGTFGGGTEVVIKG | EC50 [2]: 0.157 nM |
| – | humanised CB6B3 (huCB6B3) (antibody, V domains shown) VH: EVQLVQSGAEVKKPGATVKISCKVSGYTFTDYFIHWVQQAPGKGLEWMGLIDPENDNTMYDPRFQVRVTITADTSTDTAYMELSSLRSEDTAVYYCASTVVARSFDYWGQGTTVTVSS VL: AIQMTQSPSSLSASVGDRVTITCKASQSVSNDVAWYQQKPGKAPKLLIYYTSNRYTGVPSRFSGSGSGTDFTLTISSLQPEDFATYYCQQDFRSPFTFGGGTKVEIK | EC50 [3]: 0.13 nM |
| 80 nM | anti-Siglec-9 monoclonal antibody clone CB6B3 (parental mouse antibody) (antibody, V domains shown) VH: EVQLQQSGAEVVRPGALVKLSCKAAGFNIKDYFIHWVKQRPEQGLEWIGLIDPENDNTMYDPRFQVKASLTADTSSNTAYLQLSRLTSEDAAVYYCASTVVARSFDYWGQGTTLTVSS VL: SIVMTQTPKFLLVSAGDRVTITCKASQSVSNDVAWYQQKSGQSPKLLIYYTSNRYTGVPDRFTGSGYGTDFTFTISTVQAEDLAVYFCQQDFRSPFTFGAGTKLELK | – |
